Data on 2 molecules can be found in publication PMC2324120, “Disease mechanism for retinitis pigmentosa (RP11) caused by missense mutations in the splicing factor gene PRPF31” (Molecular Vision, 2008).

Positions count from the first letter of the chain named. Names and notes keep the numbering of the source.

T1: His-tagged PRPF31, wild type (human, UniProt Q8WWY3 1-499)
T1 construct: also called WT PRPF31; PRPF31-His; not shown: His tag, C-terminal, kept
T1 sequence (looked up): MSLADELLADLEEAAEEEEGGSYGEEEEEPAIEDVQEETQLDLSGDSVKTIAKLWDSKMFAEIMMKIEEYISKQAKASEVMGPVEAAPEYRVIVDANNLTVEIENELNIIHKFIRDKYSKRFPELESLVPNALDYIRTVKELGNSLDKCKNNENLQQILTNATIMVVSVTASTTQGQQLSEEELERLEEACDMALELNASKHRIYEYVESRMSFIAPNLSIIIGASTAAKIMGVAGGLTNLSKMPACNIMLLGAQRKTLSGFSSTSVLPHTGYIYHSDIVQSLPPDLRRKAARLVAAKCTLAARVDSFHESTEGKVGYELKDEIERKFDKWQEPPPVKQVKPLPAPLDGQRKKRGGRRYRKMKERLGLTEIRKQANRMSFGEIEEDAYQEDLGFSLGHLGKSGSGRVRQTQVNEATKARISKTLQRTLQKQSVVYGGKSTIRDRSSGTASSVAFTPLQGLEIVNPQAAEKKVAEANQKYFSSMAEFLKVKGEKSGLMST

T2: GST-tagged PRPF6 C-terminal HAT-containing domain (PRPF6C, residues 607-941) (human, UniProt O94906 607-941)
T2 construct: PRPF6 (U5-102 kD protein), human, residues 607-941, HAT domains 6-9 according to Pfam analysis; the forward primer printed for PRPF6C is nearly the same as that of PRPF6M; Cloned in pGEX6P-1 via EcoRI and SalI; also called GST-PRPF6C; PRP6F-C; not shown: GST, N-terminal, kept
T2 sequence (looked up): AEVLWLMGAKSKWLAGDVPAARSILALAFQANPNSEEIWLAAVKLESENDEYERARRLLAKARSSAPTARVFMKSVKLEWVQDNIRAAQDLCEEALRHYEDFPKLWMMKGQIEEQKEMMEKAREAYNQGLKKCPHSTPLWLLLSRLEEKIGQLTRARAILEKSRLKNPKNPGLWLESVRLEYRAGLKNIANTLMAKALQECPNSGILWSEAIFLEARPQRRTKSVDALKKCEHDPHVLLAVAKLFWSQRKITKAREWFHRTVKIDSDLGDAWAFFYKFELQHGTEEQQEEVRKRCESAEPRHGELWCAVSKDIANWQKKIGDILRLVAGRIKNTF

B1: GST-tagged PRPF6 middle HAT-containing domain (PRPF6M, residues 307-607) (domain or fragment, human, UniProt O94906 307-607, looked up)
chain: HHPPAWIASARLEEVTGKLQVARNLIMKGTEMCPKSEDVWLEAARLQPGDTAKAVVAQAVRHLPQSVRIYIRAAELETDIRAKKRVLRKALEHVPNSVRLWKAAVELEEPEDARIMLSRAVECCPTSVELWLALARLETYENARKVLNKARENIPTDRHIWITAAKLEEANGNTQMVEKIIDRAITSLRANGVEINREQWIQDAEECDRAGSVATCQAVMRAVIGIGIEEEDRKHTWMEDADSCVAHNALECARAIYAYALQVFPSKKSVWLRAAYFEKNHGTRESLEALLQRAVAHCPKA
notes: PRPF6 (U5-102 kD protein), human, residues 307-607, HAT domains 1-5 according to Pfam analysis; Cloned in pGEX6P-1 via EcoRI and SalI; also called GST-PRPF6M; PRP6F-M; not shown: GST, N-terminal, kept
B2: His-tagged PRPF31 A216P mutant (natural protein, human, UniProt Q8WWY3 1-499, looked up)
chain: T1 sequence (looked up) with A216P
notes: PRPF31 splicing factor, human, with the RP11 patient missense mutation A216P, cDNA in pTriEx-1; A216P is a disease mutation found in RP11 patients; also called mutant PRPF31; not shown: His tag, C-terminal, kept

Experiment in all cases: pull-down; GST-tagged PRPF6 domain from 100 µl E. coli extract bound to glutathione sepharose beads in PBS, excess removed and beads washed; 0.1 nmol purified His-tagged PRPF31 added in 200 µl, 30 min at 4 °C; three washes with chilled PBS, eluted with reduced glutathione; Western blots with Penta-His and anti-GST antibodies; bands quantified and normalised to WT, four determinations
What all share (details): both partners purified
Background: A western blot detects proteins with antibodies after separation by electrophoresis.

Assay [1] addresses T1, His-tagged PRPF31, wild type.
Assay [2] deals with T2, GST-tagged PRPF6 C-terminal ….
For assay [3], the target named is B1.

As for B1, in assay [1], the binding result is “binds”.
On to B2, for which the “ratio of mutant:WT PRPF31 band in the pull-down” value in assay [2] is 2.1 fold (mutant:WT); in assay [3], 4.2 fold (mutant:WT).
